The text below walks through data of the DeepSol protein solubility set.

The data set in a line: soluble on expression in E. coli; label from the status in PepcDB or PDB records.
For the sequence “MSLVDLDLTQIQKDILYALITLYKKKSGGSVKGEEIAELINRNPGTVRNQMQALRALGLVEGVPGPKGGYRPTSKAYELLSVTRPEESVVVPVVVNGNVMEELSAEEIVLPSISNPNICQARIRIIGDIKKINPGDSVIVGPTPVNEMMVYGKVVGRDDTENTIVLDIEKIVALPKDTVGEHMSSPIISVDAEESVVNAAKVLAENGIYCTPVQKNGKFVGIFTLDHVAKAVAEGKLNAKVEEVMRPKLVMVEKDTKIGEALRLMRDEKVRILLVTDKGEPVGVITDQKILTRLAPEQVETEGHHHHHH”, the “soluble on expression in E. coli” value is on record as “soluble”.

Regarding “MHVTLVEINVHEDKVDEFIEVFRQNHLGSVQEEGNLRFDVLQDPEVNSRFYIYEAYKDEDTVAFHKTTPHYKTCVAKLESLMTGPRKKRLFNGLMP”, the “soluble on expression in E. coli” value is reported as “not soluble”.

In the case of “MAFDGCCPDCKLPGDDCPLIWGACNHAFHLHCILKWVNSQTSQAHCPMCRREWQFKE”, the “soluble on expression in E. coli” value is “soluble”.

Consider “QYRHMIGQDAGYKAAGLYYVPIESLDQQQLPVVIEKLKALPEVEGYTLTTALPASSGQSGDNLIDPVTDRELINVADLFYVDEHYLKVYDIELLEGKNFDAATEKDREIMLSKKAATELARLMNWKDGVIGKNIILTSFGRVVIRGVYDDLMLRRQHLSPYPEKLPSAIVYGDDWLHYLTIRLRHDDARLLHRVNGILSEADPYKETSFLGVEMELLSRFEAAKTFRNT”, for which the “soluble on expression in E. coli” value was “not soluble”.

Take “MIMRWGEKRYHSLDYELKQMFKEKVYKIALNGGMTCPNRDGHVGTGGCIFCSSQGSGDFAGSARLSIAEQIRQGKADISSKRPVHSYIAYFQAFTNTYAPVETLRALYMEAIADPEVKILSIATRPDCLGADVLALLDEINQIKPVWVELGLQTIHPETSAYIRRGYELSVFEQAVKELRAIGITVIVHTILYLPGETKDDMLDTIHYLNHMDIQGIKLQLLHVLTHTDLAADYEKHPFYIPDMQDYIQFLGTCIAHLNPEIVIHRLTGDGPKDLLIAPLWTSNKRTVLNQLHSHLKEQDIWQGKEYYV”: the “soluble on expression in E. coli” value was “not soluble”.

For the sequence “MSDATLHATDQNPDDFAVQIADQIESFLVAVTEVAKGDEPDSAVPFLLLEVSQLMLAGGRLGAHEDIVPDERYEPDPGPELDVDEIRENLARILDPVDVYSEVFDPYEPRKAPVPARISDDLTDVITDLRHGMVHYKAGRTTEALWWWQFSYFSNWGSTASATLRALQSVVAHVRLNQPLEELDGLDTDQELGEETLESEAGRVMVREIAAPLGLRPVKLEHHHHHH”, the “soluble on expression in E. coli” value was “soluble”.

As for “PELPTCLTRRLADYATEKPLVRLFFQGEEATVPFISQTSRELNMDINILLANIDRFDGVTCGVLVVELTANPLLLEAFINRCEQAGITVEVLGYVLPDGL”, the “soluble on expression in E. coli” value is recorded as “not soluble”.

Regarding “SSPGKPPRLVGGPMDASVEEEGVRRALDFAVGEYNKASNDMYHSRACQVVRARKQIVAGVNYFLDVELCRTTCTKTQPNLDNCPFHDQPHLKRKAFCSFQIYAVPWQGTMTLSKSTCQDA”, the “soluble on expression in E. coli” value was “soluble”.

Take “DDAAIKRKLQSFNISNIVIKSSPISGIKTAVTDQGILYVSEDGKYLFEGKLYELTNNGPVDVAGKILVDKLNSYKDEMIVYPAKNEKHVVTVFMDITCHYCHLLHQQLKEYNDLGITVRYLAFPRAGMNNQTAKQMEAIWTAKDPVFALNEAEKGNLPKEVKTPNIVKKHYELGIQFGVRGTPSIVTSTGELIGGYLKPADLLRALEETAQ”: the “soluble on expression in E. coli” value is listed as “soluble”.

Consider “MSLRNEVQFELFGDYALFTDPLTKIGGEKLSYSVPTYQALKGIAESIYWKPTIVFVIDELRVMKPIQMESKGVRPIEYGGGNTLAHYTYLKDVHYQVKAHFEFNLHRPDLAFDRNEGKHYSILQRSLKAGGRRDIFLGARECQGYVAPCEFGSGDGFYDGQGKYHLGTMVHGFNYPDETGQHQLDVRLWSAVMENGYIQFPRPEDCPIVRPVKEMEPKIFNPDNVQSAEQLLHDLGGEEGHHHHHH”, for which the “soluble on expression in E. coli” value is “soluble”.

For the sequence “MVLRKLSTYRQKRDFEKTPEPSGEAAVASSKQRRFVIQKHDASRLHYDFRLEFDGVFKSWAVTKGPSLDPHDKRLAVEVEDHPLDYGDFEGTIPEGQYGGGTVMLWDRGTWEADDPERGFKKGDLKFTLHGEKLHGSWVLVRMRNDRDGGKRTNWLLIKHRDEYAREGEDILAEDKSVASGRAMAQIAEGKGLEHHHHHH”, the “soluble on expression in E. coli” value is reported as “not soluble”.

As for “MAPVQGSYDYDLIVIGGGSAGLACAKEAVLNGARVACLDFVKPTPTLGTKWGVGGTCVNVGCIPKKLMHQASLLGEAVHEAAAYGWNVDDKIKPDWHKLVQSVQNHIKSVNWVTRVDLRDKKVEYINGLGSFVDSHTLLAKLKSGERTITAQTFVIAVGGRPRYPDIPGAVEYGITSDDLFSLDREPGKTLVVGAGYIGLECAGFLKGLGYEPTVMVRSIVLRGFDQQMAELVAASMEERGIPFLRKTVPLSVEKQDDGKLLVKYKNVETGEESEDVYDTVLWAIGRKGLVDDLNLPNAGVTVQKDKIPVDSQEATNVANIYAVGDIIYGKPELTPVAVLAGRLLARRLYGGSTQRMDYKDVATTVFTPLEYACVGLSEEDAVKQFGADEIEVFHGYYKPTEFFIPQKSVRYCYLKAVAERHGDQRVYGLHYIGPVAGEVIQGFAAALKSGLTINTLINTVGIHPTTAEEFTRLAITKRSGLDPTPAS”, the “soluble on expression in E. coli” value is listed as “soluble”.

For “MLDDLPGVADNAKKILFDMKCTTVIDDCNVHLRDVLNLLEDEMHSFRLSSIEANDLDKLYDTFYYYGKKEQLIEFLLDQMTNAINFKQADKDFLIYSWLVEKLTEEQICEMLARINENTQYHWNNNLNSFVDEFVAYYKETNGIDLRINYLGAIYTNLKILSDEYTLSISDYELIFKFFEDIIESHSETIFDFQRKYKKDIETNFGNSLENFPKLNKLLFE”, the “soluble on expression in E. coli” value is “not soluble”.

For the sequence “MGSDKIHHHHHHMIFDGYEAYRAANFKPKVCILGSGPAGTTIARKLGAAGIPVVVLEAGSREFSDESQDFYRGTKVGDFYFDLDITRLRYMGGSSNHWAGWCRVLDKLDFEPKAWAPDTGWPIRRADIEPYLTEVRDILELPDFRPDVPISDDIRWVQLIKSPAVRFAEKFADELDKSGNIAVVLNTYATELAGDGKRVTGAKLWSNGQDAGAFSADYFIVCTGGLENSRLLLWSNQRSNGGVVPNATALGRYWMEHPTFEGGNAILADYGEFEVDAVNEAFFSPTLAAMERLRIMNFGIRLIETPYAGVKHVIADLACTAPDMAEWVAYQLSQNLRCAAQLYVAWEQAPLASNQIELSKTDVDHAGVPRIELHWKKSELERRTLVEGLKLFGTTLIEKDLGRVRLMDWIANGEDYPTDEETAGHHHMGGTRMGIDMTRSVVDANCKVHGMDNLYVGGSSVFCTSGQANPTTTITALACRLGEHLSKVVAV”, the “soluble on expression in E. coli” value is on record as “not soluble”.

On to “MNKLLPTSTAGSLPKPSWLAQPEKLWSPWKLQDEELTEGKQDALRLSLQEQQHAGIDIVSDGEQTRQHFVTTFIEHLSGVDFEKRETVRIRNRYDASVPTVVGAVSRPKPVFVDDAKFLRQQTRQPIKWALPGPMTMIDTLFDAHYKSREKLAWEFAKILNQEAKELEAAGVDIIQFDEPAFNVFFDEVNDWGVATLERAIEGLNCETAVHICYGYGIKANTDWKQTLGSEWRQYEESFPKLQASTIDIVSLECHNSHVPIDLIELVRGKKVMVGAIDVASNTIETPQEVADTLRKALRFVDADKLYPSTNCGMAPLARHVARGKLSALSAGADIIRAELSAQLEHHHHHH”, for which the “soluble on expression in E. coli” value is listed as “not soluble”.

As to “MVKLRDWQEKLKDKVIEGLRNNFLVALNAPTGSGKTLFSLLVSLEVKPKVLFVVRTHNEFYPIYRDLTKIREKRNITFSFLVGKPSSCLYAEKGAESEDIPCKYCELKGSIVEVKTDDSPLSLVKKLKKDGLQDKFCPYYSLLNSLYKADVIALTYPYFFIDRYREFIDIDLREYMIVIDEAHNLDKVNELEERSLSEITIQMAIKQSKSEESRRILSKLLNQLREVVLPDEKYIKVENVPKLSKEELEILADDYEDIRKDSLKQGKVNKIHIGSILRFFSLLSIGSFIPFSYSKRLVIKNPEISYYLNLLNDNELSIILMSGTLPPREYMEKVWGIKRNMLYLDVEREIQKRVSGSYECYIGVDVTSKYDMRSDNMWKRYADYLLKIYFQAKANVLVVFPSYEIMDRVMSRISLPKYVESEDSSVEDLYSAISANNKVLIGSVGKGKLAEGIELRNNDRSLISDVVIVGIPYPPPDDYLKILAQRVSLKMNRENEEFLFKIPALVTIKQAIGRAIRDVNDKCNVWLLDKRFESLYWKKNLKCLNANKMKL”, the “soluble on expression in E. coli” value is given as “soluble”.

Regarding “GSHMASGDATDITIYYKTGWTHPHIHYSLNQGAWTTLPGVPLTKSEYEGYVKVTIEAEEGSQLRAAFNNGSGQWDNNQGRDYDFSSGVHTLADGRILSGTPK”, the “soluble on expression in E. coli” value is on record as “soluble”.

In the case of “MGSDKIHHHHHHMAPRTKTRERIVQASLELFNQQGERCITTNHIAAHMEISPGNLYYHFANKQVIIAELFTQYETLVGSFLTLRTDRLPTIEDKRDYFLAMIDAMWRYRFLHQDLEHLLTSDAELARRYRRFSYRCLMQAMNIYRGFIKAGILQMDESQIEWTSLNTWIVLTSWVRFLCTNRENNAELNESAIRRGVYQVLMLESVFVAPQAREAFDALCETFHSSLPEALA”, the “soluble on expression in E. coli” value is “not soluble”.

On to “PSVYDAAAQLTADVKKDLRDSWKVWGSDKKGNGVALMTTLFADNQETIGYFKRLGDVSQGMANDKLRGHSITLMYALQNFIDQLDNPDDLVCVVEKFAVNHITRKISAAEFGKINGPIKKVLASKNFGDKYANAWAKLVAVVQAAL”, for which the “soluble on expression in E. coli” value is “soluble”.

Take “MELKARAVGVEIIPKGKIIYYSVPNGDEYERGDLVLVLGDFGLEVGKVLIPPREVVIDEVGYELKAVIRKLTDEDLEQYRKNVEDALKAFQICKQKIKEHGLPMKLLYAKYTFDRTRLIFFFSAEGRVDFRELVRDLAKIFKTRIELRQVGVRDEMKFFGGLGLCGLPTCCSTFLREFTSVTLKHAKKQQMMINPAKISGPCRRLLCCLTYEYDFYEKELEGIPDEGSTITYEGKRYKVVNVNVFLRTVTLFSEQEGEMIKLPFDYFRKGE”: the “soluble on expression in E. coli” value is on record as “soluble”.

Regarding “MPSFREDALSRIRHDGDFDAVVIGGGINGIAAYRDLALQGLRVLLVERNDFSSGCSAAPSRMIHGGLRYLENGEFGLVAESLRERDALLTLAPHMVQPLPTTIPIFSMFSGLFNAAATFFGSGGKPASRGALAIKAGLTLYDFVTRKNRLLPRHEFRGAGKTLKRWPGLTPDIRYSATYYDAWISQPERLALELLIDTSADAPQSIALNYAELVRNGDEYHIRAEETDETLPIRPRIIVNATGAWIDETIGTLSAGPAAEKQKPTVSGTKGSHLIIANDGLLKALNGHMIFFENADNRVCILFPYLGRVLAGSTDIKVDRPERVRCEPDERDYILDAIRQVFPDITVDHSDIVFSFSGIRPLPRSDAAFTGRISRSHFIHRVAGDPPQLCMIGGKWTTFRAFGEQVSDEVLAFLGRKRLTGTMNRPIGGGRNFPTGAGRLPALLSEQFSIDRRRAQHLALAYGSRAFELMGFCRGRPDDAPLSQKSPITAAEILWLIRCEHVRHLTDLILRRTTLAIAGLIDADLIDAILGVAARELGWTPTRAAVERQQLTQELETFYGVTPAMLQNRCKENALEHHHHHH”, the “soluble on expression in E. coli” value is “soluble”.

On to “MGKPSGERILQMKIALVMLAAGNSRRFGSNKLLYEIEGKPMYLLTLEKLKKASEKIPESEIIVVTQYEEIVKKAGEMKIPVFINPRPEDGISLSMQIGLMSVRDTDACLFTVSDQPWLEADTVVALTELFENEKKGMACIRWNGKTGNPCIFGQKYYEELMEISGDKGGKKIIKKHPEDVAYLQIRNARELQDADEPDVFTAGNLR”, for which the “soluble on expression in E. coli” value is given as “not soluble”.
